Source: paper PMC12623744 (Scientific Reports, 2025)
Where two headings read alike, the source gives them in different places.

T1: HVEM-His protein (Homo sapiens, UniProt Q92956)
T1 construct: purchased ACROBiosystems
T1 sequence (Q92956 39-283): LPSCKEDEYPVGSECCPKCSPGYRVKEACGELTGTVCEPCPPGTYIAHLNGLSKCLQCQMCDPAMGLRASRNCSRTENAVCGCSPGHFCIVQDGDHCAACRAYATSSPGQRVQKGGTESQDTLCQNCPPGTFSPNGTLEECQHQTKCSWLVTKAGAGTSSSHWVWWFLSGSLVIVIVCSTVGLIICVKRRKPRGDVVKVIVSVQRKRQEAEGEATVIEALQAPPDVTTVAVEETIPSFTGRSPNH

B1: LIGHT: LIGHT protein, TNFSF ligand of HVEM (protein)
chain: MEESVVRPSVFVVDGQTDIPFTRLGRSHRRQSCSVARVGLGLLLLLMGAGLAVQGWFLLQLHWRLGEMVTRLPDGPAGSWEQLIQERRSHEVNPAAHLTGANSSLTGSGGPLLWETQLGLAFLRGLSYHDGALVVTKAGYYYIYSKVQLGGVGCPLGLASTITHGLYKRTPRYPEELELLVSQQSPCGRATSSSRVWWDSSFLGGVVHLEAGEKVVVRVLDERLVRLRDGTRSYFGAFMV
B2: HVEM-His protein (receptor, UniProt Q92956 39-202, looked up)
chain: LPSCKEDEYPVGSECCPKCSPGYRVKEACGELTGTVCEPCPPGTYIAHLNGLSKCLQCQMCDPAMGLRASRNCSRTENAVCGCSPGHFCIVQDGDHCAACRAYATSSPGQRVQKGGTESQDTLCQNCPPGTFSPNGTLEECQHQTKCSWLVTKAGAGTSSSHWV
modifications: labelled with RED-tris-NTA 2nd Generation dye on the His tag (spectral shift only)
notes: Herpes virus entry mediator (HVEM); No catalogue number printed; also called herpes virus entry mediator; source: bought: ACROBiosystems

How the values were obtained:
[1] = biological target: T1, HVEM-His protein; assay: Spectral shift (SpS) affinity of peptides to HVEM; type: binding; conditions: spectral shift (Monolith X, 670/650 nm), 50 nM RED-tris-NTA labelled HVEM-His, ligand 2 µM to 6.1 pM, PBS-T pH 7.4 with 0.3 M NaCl, 25 °C; mean of triplicate; apparent, approximate value only
Procedure: Based on the computer analyses conducted for the designed peptides in complex with the HVEM, five compounds – peptides light1, light2, light3, light4, and light3_E178L were selected for experimental validation and their affinity to HVEM was evaluated using SpS.Fluorescence intensity was measured at 670 and 650 nm (Figure S4). […] Due to the fact that peptides at higher concentrations aggregated, it was not possible to fully determine the Kd. Therefore, only the apparent Kd values were determined and were used for HVEM binding strength comparison. Note that apparent Kd is only approximate value and should be used only for qualitative comparison.
SpS experiments were conducted using the Monolith X instrument (Nanotemper, Munich, Germany). Protein labelling was performed using the His-Tag Labeling Kit RED-tris-NTA 2nd Generation (Nanotemper, Munich, Germany). To prepare the fluorescent dye solution at concentration 0.1 µM, 2 µL of a 5 µM dye stock was diluted in 98 µL of deionized water. […] The mixtures were loaded into Monolith X-compatible capillary tubes, and fluorescence ratios (670/650 nm) were measured at 40% excitation power and average IR laser power at a temperature of 25 °C. Data were analyzed using MO.Control 2 software (version 2.5.4, NanoTemper, Munich, Germany). […]

[2] = biological target: HVEM; parameters: method as in 2 sources, ref 11 = [11]; PMID 25087510; doi:10.1016/j.str.2014.06.013; 11. Liu W Mechanistic basis for functional promiscuity in the TNF and TNF receptor superfamilies: structure of the LIGHT:DcR3 assembly Structure 2014 22 1252 10.1016/j.str.2014.06.013 25087510 PMC4163 ||| ref 41 = [41]; PMID 20175993; doi:10.1016/j.bbrc.2010.02.119; 41. Morishige T Creation of a lysine-deficient LIGHT mutant with the capacity for site-specific pegylation and low affinity for a decoy receptor Biochem. Biophys. Res. Commun. 2010 393 888 893 10.1016; conditions: other research group, read-out: Kd of HVEM/LIGHT complex, cited from earlier work
[3] = biological target: T1, HVEM-His protein; conditions: SpS technique; previously determined by the authors; read-out: Kd of LIGHT binding to HVEM; cited from earlier work
[4] = biological target: LIGHT protein (UniProt O43557 1-240); assay: spectral shift (SpS); Monolith X; HVEM-His labelled with His-Tag Labeling Kit RED-tris-NTA 2nd Generation, final 50 nM; peptides 2 µM to 6.1 pM; PBS-T (0.05% Tween-20, 0.3 M NaCl, pH 7.4); fluorescence ratio 670/650 nm; 25 °C; apparent Kd (peptides aggregated at higher concentrations); conditions: both partners purified

Row | Molecule | Kd [1] | Kd ([2]; ref 11) | Kd ([2]; ref 41) | Kd [3] | Kd [4]
1 | B1 | 920 nM | 18.7 nM | 1.5 nM | 920 nM | 
2 | B2 |  |  |  |  | 920 nM
